Biological target: importin-α (PBMCs) (human (endogenous in PBMCs)) (UniProt P52292)
Assay: co-IP; PBMCs from seven steroid-naive asthma patients after inhaled FP (100 or 500 µg via a spacer) or placebo in vivo, blood taken at 1 and 2 h; densitometry of blots

## phospho-GATA-3 (PBMCs) (from UniProt P23771 1-443) (natural protein)
  GATA-3–importin-α association (densitometry, median), 2 h after inhaled FP 500 µg: 879
  GATA-3–importin-α association (densitometry, median), reference before the decrease: 13500
